{
  "source": "paper PMC5546597",
  "key": {"[1]": {"target": "MTCL1 CC1 fragment purified from E. coli (mouse)", "test": "cross-linking; purified CC1 fragment (0.52 mg/ml) in PBS, 30 min at 25°C with DST (0.1, 0.3 and 0.9 mg/ml); stopped with 50 mM Tris-HCl pH 7.5"}, "[2]": {"target": "MTCL1 CC1 fragment purified from E. coli (mouse)", "test": "SDS-PAGE without heat pretreatment; purified tag-free CC1 fragment in SDS sample buffer with 2% SDS, with or without heat treatment (100°C, 10 min); CBB staining"}},
  "data": [
    {"substance": "MTCL1 CC1 fragment purified from E. coli (domain or fragment)", "values": [
      {"measurement": "stoichiometry N", "setting": "[1]", "value": 2},
      {"measurement": "stoichiometry N", "setting": "[2]", "value": 2}
    ]}
  ]
}
